According to patent publication US6645738B1, “DNA molecules encoding the melanocortin 5 receptor protein from rhesus monkey” (Merck & Co., Inc., priority 1998, dated 2003):
Like-named read-outs stand apart in the source and are kept apart here.

T1: rhesus monkey (Macaca mulatta) melanocortin-5 receptor (rhesus monkey (Macaca mulatta), UniProt P33032 1-325 (human entry))
T1 chain: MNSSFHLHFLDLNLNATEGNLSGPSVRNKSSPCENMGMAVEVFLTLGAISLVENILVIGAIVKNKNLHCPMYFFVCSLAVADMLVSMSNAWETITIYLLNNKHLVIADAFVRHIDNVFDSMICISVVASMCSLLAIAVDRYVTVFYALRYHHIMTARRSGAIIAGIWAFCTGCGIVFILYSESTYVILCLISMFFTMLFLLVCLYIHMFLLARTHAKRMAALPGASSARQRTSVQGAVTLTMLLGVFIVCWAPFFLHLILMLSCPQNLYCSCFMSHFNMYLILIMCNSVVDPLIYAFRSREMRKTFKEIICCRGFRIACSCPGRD


Key:
[1] = target: T2, human melanocortin 5 receptor (human, UniProt P33032 1-325); assay: cell-based or functional assay
[2] = target: rhesus monkey (Macaca mulatta) melanocortin-5 receptor (rhesus monkey (Macaca mulatta)); assay: cell-based or functional assay
[3] = target: rhesus monkey (Macaca mulatta) melanocortin-5 receptor (rhesus monkey (Macaca mulatta)); assay: displacement of 0.1 nM 125I-NDP-α-MSH from CHO cells stably expressing rhMC-5R
rhesus MC-5R [4] = format: cell-based, rhesus monkey (Macaca mulatta); details: for EC50: read-out: EC50, nM rhMC-5R
Procedure: (§1) To determine the functional activation of receptors, stably transfected CHO cells were washed once with PBS without Ca^++/Mg^++, dissociated by non-enzymatic dissociation medium (Specialty Media, Inc.) at 37° C. for 10 min. Dissociated cells were resuspended in EBSS buffer containing 25 mM Hepes, 5 mM MgCl2, 0.1% BSA and 50 mM IBMX and incubated with agonist at room temperature for 45 min. The agonist activation was terminated by boiling for 4 min.
(§2) A cDNA encoding human MC-5R subcloned into the pIRES1neo expression vector (Clontech) and stably transfected into CHO cells was used as a reference for the pharmacological properties of the rhesus MC-5R. Single clones were used in all pharmacological studies as described above. The functional properties of rhMC-5R were determined by heterologous expression in CHO cells.

human MC-5R [5] = target: T3, human MC-5R (Homo sapiens, UniProt P33032); format: cell-based
T3 construct: expressed in transfected cells
Procedure: as §1
(§3) Single clones were used in all pharmacological studies as described above.
as §2

rhesus MC-5R [6] = format: binding, rhesus monkey (Macaca mulatta); details: read-out: IC50, nM rhMC-5R
Procedure: (§4) The receptor plasmid was transfected into CHO dhfr- cells using lipofectamin (GIBCO). Transfected cells were selected by G418 for at least 2-3 weeks before binding and functional assays were performed. […] After incubation at room temperature for 3 hours, wells were washed 3 times by PBS, lysed in 0.5 ml of 0.05% SDS and counted by a gamma counter.
as §2

[7] = target: T2, human melanocortin 5 receptor; assay: displacement of 0.1 nM 125I-NDP-α-MSH from CHO cells stably expressing hMC-5R
human MC-5R [8] = target: T3, human MC-5R; format: binding
Procedure: as §4, §3, §2

[9] = target: T1, rhesus monkey (Macaca mulatta) …; assay: cell-based or functional assay
[10] = target: T1, rhesus monkey (Macaca mulatta) …; assay: displacement of 0.1 nM 125I-NDP-α-MSH from CHO cells stably expressing rhMC-5R
Procedure: as §4, with “dhfr-cells” for “dhfr- cells”, “2–3” for “2-3”

T3 sequence (P33032 whole entry): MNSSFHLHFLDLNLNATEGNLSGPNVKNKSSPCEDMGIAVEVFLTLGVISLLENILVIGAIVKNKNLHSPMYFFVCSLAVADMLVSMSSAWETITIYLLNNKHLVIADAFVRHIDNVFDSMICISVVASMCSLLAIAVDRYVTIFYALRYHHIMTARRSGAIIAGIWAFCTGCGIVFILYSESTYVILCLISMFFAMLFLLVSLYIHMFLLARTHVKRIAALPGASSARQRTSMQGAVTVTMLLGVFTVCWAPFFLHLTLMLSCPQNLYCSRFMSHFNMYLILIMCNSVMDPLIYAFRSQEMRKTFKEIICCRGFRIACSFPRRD

Row | EC50, nM (cAMP synthesis in CHO cells) [1] | Maximal response (%) [1] | EC50, nM (cAMP synthesis in CHO cells) [2] | Maximal response (%) [2] | IC50 [3] | Molecule | Maximal response (%) rhMC-5R (rhesus MC-5R [4]) | EC50 (rhesus MC-5R [4]) | IC50 (rhesus MC-5R [6]) | other results
1 | 0.8 nM | 85% | 0.02 nM | 100% | 5 nM | MT-II (peptide) | – | – | – | –
2 | – | – | – | – | – | MT-II [MTII] | 100% | 0.02 ± 0.01 nM | 5 ± 0.2 nM | Agonist character at human MC-5R (in words) (human MC-5R [5]): partial agonists; Maximal response (%) hMC-5R (human MC-5R [5]): 85%
3 | – | – | – | – | – | NDP-α-MSH | 100% | 0.02 ± 0.01 nM | 0.2 ± 0.1 nM | –
4 | 0.3 nM | 100% | 0.02 nM | 100% | 0.2 nM | NDP-α-MSH (peptide) | – | – | – | IC50 [7]: 0.5 nM
5 | 0.03 nM | 100% | 0.007 nM | 100% | 0.02 nM | Shu-9119 (peptide) | – | – | – | IC50 [7]: 0.4 nM
6 | – | – | – | – | – | human ACTH(1-24) [ACTH1-24] | – | – | 15 ± 1 nM | Maximal response (%) rhMC-5R (rhesus MC-5R [4]; cAMP response, CHO cells): 100%; EC50 (rhesus MC-5R [4]; intracellular cAMP, CHO cells, agonist 45 min at room temperature): 0.2 ± 0.1 nM; Maximal response (%) hMC-5R (human MC-5R [5]; cAMP response, CHO cells): 100%
7 | – | – | – | – | – | α-MSH | 100% | 0.2 ± 0.1 nM | – | Apparent binding affinity for the human MC-5R (in words) (human MC-5R [8]): very low apparent binding affinity
8 | – | – | – | – | – | γ2-MSH | 100% | – | – | Agonist character at human MC-5R (in words) (human MC-5R [5]): partial agonists; Maximal response (%) hMC-5R (human MC-5R [5]): 80%
9 | 5 nM | 100% | – | – | – | SYSMEHFRWGKPVGKKRRPVKVYP (peptide, UniProt P01189 138-161, looked up, range 138-161) [human ACTH(1-24)] | – | – | – | EC50, nM (cAMP synthesis in CHO cells) [9]: 0.2 nM; Maximal response (%) [9]: 100%; IC50 [10]: 15 nM
